Results published in patent US20160257942, “MODIFIED HELICASES” (Oxford Nanopore Technologies Ltd., published 2016).

Biological target: T1, T4 Dda E94C/A360C (Enterobacteria phage T4, UniProt P32270 SEQ:1-439, E94C/A360C/(ΔM1)G1G2)
T1 sequence: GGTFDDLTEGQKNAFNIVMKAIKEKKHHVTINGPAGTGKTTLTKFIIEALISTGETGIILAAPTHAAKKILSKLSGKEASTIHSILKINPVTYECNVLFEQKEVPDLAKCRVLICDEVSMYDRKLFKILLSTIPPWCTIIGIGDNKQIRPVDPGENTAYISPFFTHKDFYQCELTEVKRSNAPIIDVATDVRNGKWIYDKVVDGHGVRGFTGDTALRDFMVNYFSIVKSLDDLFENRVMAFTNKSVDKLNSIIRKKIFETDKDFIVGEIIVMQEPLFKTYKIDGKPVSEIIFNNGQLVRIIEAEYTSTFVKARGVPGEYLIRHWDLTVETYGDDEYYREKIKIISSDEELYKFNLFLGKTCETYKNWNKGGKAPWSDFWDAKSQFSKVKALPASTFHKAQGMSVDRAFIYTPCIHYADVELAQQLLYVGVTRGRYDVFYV
Experiment: FP; 25 mM potassium phosphate, 151.5 mM KCl, pH 8.0, 10 mM MgCl2, 25 C, 60 min; exact value only in figure
Details: label: FAM on thymine 37
Procedure: Two custom fluorescent substrates were used to assess the ability of T4 Dda—E94C/A360C helicase to bind to linear (SEQ ID NO: 64) and circular (SEQ ID NO: 65) single-stranded DNA. […] As the helicase bound to either fluorescent substrate in a buffered solution (25 mM potassium phosphate, 151.5 mM KCl, pH8.0, 10 mM MgCl₂), the fluorescence anisotropy (a property relating to the speed of tumbling of the DNA substrate in solution) increased. The lower the amount of helicase needed to effect an increase in anisotropy, the tighter the binding affinity between the DNA and helicase (FIG. 3).
T4 Dda—E94C/A360C was buffer exchanged into the binding buffer (25 mM potassium phosphate, 151.5 mM KCl, pH8.0, 10 mM MgCl₂) and then serially diluted over a concentration range of 0.02 nM to 750 nM. Each sample concentration was then mixed with linear or circular single-stranded DNA (1 nM of SEQ ID NO: 64 or 65) giving a final concentration range of T4 Dda—E94C/A360C of 0.01 nM to 375 nM and the fluorescence anisotropy assessed over the course of 60 min at 25° C.

B1: 44 nt linear ssDNA (ssDNA)
DNA: TTTTTTTTTTTTTTTTTTTTTTTTTTTTTTTTTTTTTTTTTTTT
In the case of B1, the Kd is reported as < 15 nM.
